The results in this text go back to the supplement of paper PMC5998384.

The subject of series [1] is HeLa Kyoto. Put plainly: thermal stability score vs G1/S (z-score of summed log2 fold changes over temperatures); higher = more thermally stable than in G1/S.
For series [2], the system named is HeLa Kyoto. Put plainly: solubility change mitosis vs G1/S (difference of NP-40 vs SDS log2 ratios) (log2 ratio difference); higher = more soluble in mitosis.
Series [3] has as its system HeLa Kyoto. Put plainly: solubility in G1/S (NP-40 vs SDS abundance) (log2 ratio); higher = more soluble. The conditions noted are these: cell cycle stage: G1/S.
In series [4] the test system is HeLa Kyoto. Put plainly: melting temperature (median over replicates), in situ; higher = more thermally stable.
The mark [5] stands for this setting: cell cycle stage: early G1 (4.5 h after nocodazole release).
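For melting temperature (median over replicates), in situ in this document: HeLa Kyoto cells synchronized by double thymidine or nocodazole block, proteins quantified by TMT10plex mass spectrometry, three independent biological replicates.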
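For solubility change mitosis vs G1/S (difference of NP-40 vs SDS log2 ratios) in this document: synchronized HeLa Kyoto cells (double thymidine block for G1/S, nocodazole release for mitosis), protein amounts in NP-40 versus SDS lysates quantified by mass spectrometry, three biological replicates.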
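For solubility in G1/S (NP-40 vs SDS abundance) in this document: HeLa Kyoto cells arrested at G1/S by double thymidine block, proteins quantified by TMT10plex mass spectrometry in mild NP-40 versus SDS extracts, three biological replicates.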
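For thermal stability score vs G1/S (z-score of summed log2 fold changes over temperatures) in this document: synchronized HeLa Kyoto cells, proteins quantified by TMT10plex mass spectrometry, three biological replicates, mitosis taken 0.5 h after nocodazole release, G1/S directly after double thymidine block.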

As for “MDDQGCPRCKTTKYRNPSLKLMVNVCGHTLCESCVDLLFVRGAGNCPECGTPLRKSNFRVQLFEDPTVDKEVEIRKKVLKIYNKREEDFPSLREYNDFLEEVEEIVFNLTNNVDLDNTKKKMEIYQKENKDVIQKNKLKLTREQEELEEALEVERQENEQRRLFIQKEEQLQQILKRKNKQAFLDELESSDLPVALLLAQHKDRSTQLEMQLEKPKPVKPVTFSTGIKMGQHISLAPIHKLEEALYEYQPLQIETYGPHVPELEMLGRLGYLNHVRAASPQDLAGGYTSSLACHRALQDAFSGLFWQPS [MNAT1]”, the thermal stability score with HeLa Kyoto [1] (setting [5]) was -0.397; in the series with HeLa Kyoto [1] (cell cycle stage: mitosis), -0.426. Besides, the “solubility change mitosis (log2)” value in the series on HeLa Kyoto [2] came out at 0.565. In the series on HeLa Kyoto [3], the “solubility in G1/S (log2)” value was -0.181. Moreover, the melting temperature in the series on HeLa Kyoto [4] (cell cycle stage: G1/S) was found to be 52.1 °C; in the series on HeLa Kyoto [4] (cell cycle stage: mitosis), 53 °C.

Take “MATATEQWVLVEMVQALYEAPAYHLILEGILILWIIRLLFSKTYKLQERSDLTVKEKEELIEEWQPEPLVPPVPKDHPALNYNIVSGPPSHKTVVNGKECINFASFNFLGLLDNPRVKAAALASLKKYGVGTCGPRGFYGTFDVHLDLEDRLAKFMKTEEAIIYSYGFATIASAIPAYSKRGDIVFVDRAACFAIQKGLQASRSDIKLFKHNDMADLERLLKEQEIEDQKNPRKARVTRRFIVVEGLYMNTGTICPLPELVKLKYKYKARIFLEESLSFGVLGEHGRGVTEHYGINIDDIDLISANMENALASIGGFCCGRSFVIDHQRLSGQGYCFSASLPPLLAAAAIEALNIMEENPGIFAVLKEKCGQIHKALQGISGLKVVGESLSPAFHLQLEESTGSREQDVRLLQEIVDQCMNRSIALTQARYLEKEEKCLPPPSIRVVVTVEQTEEELERAASTIKEVAQAVLL [SPTLC1]”: the thermal stability score in the series with HeLa Kyoto [1] (setting [5]) is 0.272; in the series on HeLa Kyoto [1] (cell cycle stage: mitosis) it was -0.0699. In addition, the “solubility change mitosis (log2)” value with HeLa Kyoto [2] was -0.06. Besides, the “solubility in G1/S (log2)” value in the series on HeLa Kyoto [3] was -0.0163. Further, the melting temperature is 51.5 °C in the series with HeLa Kyoto [4] (cell cycle stage: G1/S) and 52 °C in the series with HeLa Kyoto [4] (cell cycle stage: mitosis).

On to “MAGSVADSDAVVKLDDGHLNNSLSSPVQADVYFPRLIVPFCGHIKGGMRPGKKVLVMGIVDLNPESFAISLTCGDSEDPPADVAIELKAVFTDRQLLRNSCISGERGEEQSAIPYFPFIPDQPFRVEILCEHPRFRVFVDGHQLFDFYHRIQTLSAIDTIKINGDLQITKLG [LGALSL]”, for which the thermal stability score in the series on HeLa Kyoto [1] (setting [5]) is 0.0977; in the series with HeLa Kyoto [1] (cell cycle stage: mitosis), -0.222. In the series on HeLa Kyoto [2], the “solubility change mitosis (log2)” value is -0.16. The “solubility in G1/S (log2)” value in the series on HeLa Kyoto [3] came out at 0.36. Also, the melting temperature in the series with HeLa Kyoto [4] (cell cycle stage: G1/S) amounted to 53.3 °C; with HeLa Kyoto [4] (cell cycle stage: mitosis) it was 54 °C.

In the case of “MGRTVVVLGGGISGLAASYHLSRAPCPPKVVLVESSERLGGWIRSVRGPNGAIFELGPRGIRPAGALGARTLLLVSELGLDSEVLPVRGDHPAAQNRFLYVGGALHALPTGLRGLLRPSPPFSKPLFWAGLRELTKPRGKEPDETVHSFAQRRLGPEVASLAMDSLCRGVFAGNSRELSIRSCFPSLFQAEQTHRSILLGLLLGAGRTPQPDSALIRQALAERWSQWSLRGGLEMLPQALETHLTSRGVSVLRGQPVCGLSLQAEGRWKVSLRDSSLEADHVISAIPASVLSELLPAEAAPLARALSAITAVSVAVVNLQYQGAHLPVQGFGHLVPSSEDPGVLGIVYDSVAFPEQDGSPPGLRVTVMLGGSWLQTLEASGCVLSQELFQQRAQEAAATQLGLKEMPSHCLVHLHKNCIPQYTLGHWQKLESARQFLTAHRLPLTLAGASYEGVAVNDCIESGRQAAVSVLGTEPNS [PPOX]”, the thermal stability score is 0.0829 with HeLa Kyoto [1] (setting [5]) and -0.0946 with HeLa Kyoto [1] (cell cycle stage: mitosis). For the same sequence, in the series on HeLa Kyoto [2], the “solubility change mitosis (log2)” value was -0.0988. The “solubility in G1/S (log2)” value in the series on HeLa Kyoto [3] came to 0.0337. The melting temperature with HeLa Kyoto [4] (cell cycle stage: G1/S) came to 53.3 °C; in the series with HeLa Kyoto [4] (cell cycle stage: mitosis), 54 °C.

As to “MSKSESPKEPEQLRKLFIGGLSFETTDESLRSHFEQWGTLTDCVVMRDPNTKRSRGFGFVTYATVEEVDAAMNARPHKVDGRVVEPKRAVSREDSQRPGAHLTVKKIFVGGIKEDTEEHHLRDYFEQYGKIEVIEIMTDRGSGKKRGFAFVTFDDHDSVDKIVIQKYHTVNGHNCEVRKALSKQEMASASSSQRGRSGSGNFGGGRGGGFGGNDNFGRGGNFSGRGGFGGSRGGGGYGGSGDGYNGFGNDGGYGGGGPGYSGGSRGYGSGGQGYGNQGSGYGGSGSYDSYNNGGGGGFGGGSGSNFGGGGSYNDFGNYNNQSSNFGPMKGGNFGGRSSGPYGGGGQYFAKPRNQGGYGGSSSSSSYGSGRRF [HNRNPA1]”, the thermal stability score is -0.92 with HeLa Kyoto [1] (setting [5]) and 1.18 in the series with HeLa Kyoto [1] (cell cycle stage: mitosis). Besides, the “solubility change mitosis (log2)” value with HeLa Kyoto [2] worked out at 0.275. Moreover, the “solubility in G1/S (log2)” value in the series on HeLa Kyoto [3] was -0.184. Further, the melting temperature was 49.4 °C with HeLa Kyoto [4] (cell cycle stage: G1/S) and 50.1 °C with HeLa Kyoto [4] (cell cycle stage: mitosis).

As for “MAEEQGRERDSVPKPSVLFLHPDLGVGGAERLVLDAALALQARGCSVKIWTAHYDPGHCFAESRELPVRCAGDWLPRGLGWGGRGAAVCAYVRMVFLALYVLFLADEEFDVVVCDQVSACIPVFRLARRRKKILFYCHFPDLLLTKRDSFLKRLYRAPIDWIEEYTTGMADCILVNSQFTAAVFKETFKSLSHIDPDVLYPSLNVTSFDSVVPEKLDDLVPKGKKFLLLSINRYERKKNLTLALEALVQLRGRLTSQDWERVHLIVAGGYDERVLENVEHYQELKKMVQQSDLGQYVTFLRSFSDKQKISLLHSCTCVLYTPSNEHFGIVPLEAMYMQCPVIAVNSGGPLESIDHSVTGFLCEPDPVHFSEAIEKFIREPSLKATMGLAGRARVKEKFSPEAFTEQLYRYVTKLLV [ALG2]”, the thermal stability score in the series on HeLa Kyoto [1] (setting [5]) was 0.227; with HeLa Kyoto [1] (cell cycle stage: mitosis) it was 0.342. In addition, in the series with HeLa Kyoto [2], the “solubility change mitosis (log2)” value was -0.229. Further, the “solubility in G1/S (log2)” value with HeLa Kyoto [3] is -0.0813. The melting temperature in the series with HeLa Kyoto [4] (cell cycle stage: G1/S) came out at 51 °C; with HeLa Kyoto [4] (cell cycle stage: mitosis), 51.3 °C.
